Results reported in patent publication US20240084003A1 (SIMCERE ZAIMING PHARMACEUTICAL, published 2024).
Where two headings read alike, the source gives them in different places.

Legend:
[1] = target: T1, murine CD22 protein (ACROBiosystems, SI2-M52Ha) (murine, UniProt P35329 22-708); assay: ELISA, coated murine CD22, 0.0001 nM Ab
T1 construct: extracellular domain; also called murine CD22-ECD; murine CD22-ECD-His
T1 sequence (looked up): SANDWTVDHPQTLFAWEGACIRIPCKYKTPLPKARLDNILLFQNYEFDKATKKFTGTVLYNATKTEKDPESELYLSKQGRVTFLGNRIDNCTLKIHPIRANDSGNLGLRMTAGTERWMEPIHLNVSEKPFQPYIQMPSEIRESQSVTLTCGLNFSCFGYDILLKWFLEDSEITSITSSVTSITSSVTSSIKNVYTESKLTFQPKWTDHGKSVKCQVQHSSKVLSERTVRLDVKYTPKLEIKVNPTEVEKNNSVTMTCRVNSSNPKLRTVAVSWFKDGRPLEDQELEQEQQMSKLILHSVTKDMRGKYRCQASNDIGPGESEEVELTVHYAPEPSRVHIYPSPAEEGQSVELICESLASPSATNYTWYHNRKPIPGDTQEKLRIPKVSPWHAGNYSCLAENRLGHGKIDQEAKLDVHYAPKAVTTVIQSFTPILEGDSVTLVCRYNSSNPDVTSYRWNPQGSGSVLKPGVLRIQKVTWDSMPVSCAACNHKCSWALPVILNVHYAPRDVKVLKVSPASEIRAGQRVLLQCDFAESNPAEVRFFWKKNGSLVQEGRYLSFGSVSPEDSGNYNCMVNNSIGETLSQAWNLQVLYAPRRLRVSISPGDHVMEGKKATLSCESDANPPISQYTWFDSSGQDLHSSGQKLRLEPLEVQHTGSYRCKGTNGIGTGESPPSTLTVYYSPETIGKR
Outline: (§1)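 Direct ELISA: chimeric antibody binding to CD22 coated at 2 μg/mL, with a 37° C, 2 h antibody step and HRP/TMB detection.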

[2] = target: T1, murine CD22 protein (ACROBiosystems, …); assay: ELISA, coated murine CD22, 0.001 nM Ab
Outline: as §1

[3] = target: T1, murine CD22 protein (ACROBiosystems, …); assay: ELISA, coated murine CD22, 0.1 nM Ab
Outline: as §1

[4] = target: T2, human CD22, endogenous on Raji cells (human, UniProt P20273 20-847); assay: FACS, Raji cells
T2 construct: whole, on cells; Endogenous protein of the Raji cell line
T2 sequence (looked up): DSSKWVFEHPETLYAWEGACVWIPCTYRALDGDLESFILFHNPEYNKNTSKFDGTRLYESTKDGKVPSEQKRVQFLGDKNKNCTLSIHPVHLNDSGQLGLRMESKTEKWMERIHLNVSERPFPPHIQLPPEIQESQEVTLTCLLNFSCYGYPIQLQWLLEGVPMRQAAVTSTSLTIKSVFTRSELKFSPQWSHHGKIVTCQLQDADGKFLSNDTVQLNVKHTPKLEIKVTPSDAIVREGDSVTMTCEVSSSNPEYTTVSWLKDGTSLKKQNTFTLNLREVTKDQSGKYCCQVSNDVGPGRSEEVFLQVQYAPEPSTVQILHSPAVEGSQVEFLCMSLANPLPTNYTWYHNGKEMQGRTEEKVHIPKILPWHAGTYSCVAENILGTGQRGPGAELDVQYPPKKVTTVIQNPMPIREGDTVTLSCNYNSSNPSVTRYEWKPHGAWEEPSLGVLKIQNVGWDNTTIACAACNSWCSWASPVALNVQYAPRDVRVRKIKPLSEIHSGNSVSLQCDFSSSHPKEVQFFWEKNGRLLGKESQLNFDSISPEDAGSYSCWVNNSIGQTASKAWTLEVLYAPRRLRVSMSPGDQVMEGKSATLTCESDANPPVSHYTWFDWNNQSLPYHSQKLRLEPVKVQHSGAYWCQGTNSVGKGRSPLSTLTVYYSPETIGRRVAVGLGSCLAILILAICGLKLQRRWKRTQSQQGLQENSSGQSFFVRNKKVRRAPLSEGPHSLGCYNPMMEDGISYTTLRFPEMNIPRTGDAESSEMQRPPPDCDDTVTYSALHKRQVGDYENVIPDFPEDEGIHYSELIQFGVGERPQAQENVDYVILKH
Description: (§2) The required cells were scale-up cultured in a T-75 cell culture flask to the logarithmic growth phase. For the adherent cell CHO-K1, the medium was aspirated, the cells were washed 2 times with PBS buffer, and then digested with trypsin. After the digestion was terminated, the cells were washed 2 times with PBS buffer. For suspension cell Raji, the medium supernatant was directly centrifuged and discarded, and the cell pellet was washed 2 times with PBS. After counting the cells in the previous step, the cell pellet was resuspended with [PBS+2% (w/w) BSA] blocking solution to 2×10⁶ cells/ml, and added to a 96-well FACS reaction plate at 50 μl/well, and then the chimeric antibody test sample was added at 50 μl/well, and incubated on ice for 2 hours. The mixture was centrifuged and washed 3 times with PBS buffer, Alexa Flour 488-labeled secondary antibody (purchased from Invitrogen, catalog number: A-11013) was added at 50 μl/well, and incubated on ice for 1 hour. The obtained mixture was centrifuged and washed 5 times with PBS, and FACS (FACS Canto™, purchased from BD Company) was used for detection and result analysis. Data analysis was performed by software (CellQuest) to obtain the mean fluorescence density (MFI)of the cells. And then software (GraphPad Prism8) was used for analysis, data fitting, and EC50 value calculation. […] The same method was used to detect the binding of the chimeric antibodies to endogenous CD22-negative cell MoLT4 cells (purchased from ATCC, CRL-1582) and CHO-K1 cells.

[5] = target: T2, human CD22, endogenous on Raji cells; assay: FACS, Raji cells; remark: listed apart in the source
Outline: (§3)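 Raji cells and CHO-K1 cells expressing human CD22 were blocked in PBS + 2% BSA at 2×10⁶ cells/ml and incubated with chimeric antibody for 2 h on ice. Bound antibody was detected with an Alexa Fluor 488 secondary for 1 h on ice and read by flow cytometry as MFI. EC50 came from curve fitting.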

[6] = target: T1, murine CD22 protein (ACROBiosystems, …); assay: ELISA, coated murine CD22, 0.00001 nM Ab
Outline: as §1

[7] = target: T1, murine CD22 protein (ACROBiosystems, …); assay: ELISA, coated murine CD22, 10 nM Ab
Outline: as §1

[8] = target: T3, human CD22, full length, on CHO-K1-human CD22 2C4 cells (human, UniProt P20273 20-847); assay: FACS, CHO-K1-human CD22 2C4 cells
T3 construct: Full-length human CD22 (NCBI NP_001762.2) stably transfected into CHO-K1
T3 sequence: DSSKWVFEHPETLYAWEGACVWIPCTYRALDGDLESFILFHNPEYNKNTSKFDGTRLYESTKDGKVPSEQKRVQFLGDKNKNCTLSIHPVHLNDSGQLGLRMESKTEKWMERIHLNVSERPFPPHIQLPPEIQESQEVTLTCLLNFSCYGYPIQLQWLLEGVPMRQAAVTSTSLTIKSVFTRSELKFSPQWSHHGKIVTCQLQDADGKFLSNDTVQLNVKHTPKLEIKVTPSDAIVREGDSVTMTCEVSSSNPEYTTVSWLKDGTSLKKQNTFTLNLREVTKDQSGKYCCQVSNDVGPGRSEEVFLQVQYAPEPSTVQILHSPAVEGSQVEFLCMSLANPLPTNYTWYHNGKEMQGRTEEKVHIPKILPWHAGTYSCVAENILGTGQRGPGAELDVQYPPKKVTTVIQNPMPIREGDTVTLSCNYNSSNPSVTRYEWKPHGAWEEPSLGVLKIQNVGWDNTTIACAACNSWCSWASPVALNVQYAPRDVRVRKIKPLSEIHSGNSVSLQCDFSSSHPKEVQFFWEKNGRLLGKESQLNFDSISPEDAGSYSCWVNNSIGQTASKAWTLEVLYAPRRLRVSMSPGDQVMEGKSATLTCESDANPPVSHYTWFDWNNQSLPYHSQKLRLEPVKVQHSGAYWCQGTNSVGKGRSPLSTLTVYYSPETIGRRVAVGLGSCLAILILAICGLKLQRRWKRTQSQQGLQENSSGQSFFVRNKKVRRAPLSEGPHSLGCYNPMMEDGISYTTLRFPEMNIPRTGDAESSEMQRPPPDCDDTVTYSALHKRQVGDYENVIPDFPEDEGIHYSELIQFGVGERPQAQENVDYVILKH
Outline: as §3

[9] = target: T3, human CD22, full length, on …; assay: FACS, CHO-K1-human CD22 2C4 cells; remark: listed apart in the source
Description: as §2

[10] = target: T1, murine CD22 protein (ACROBiosystems, …); assay: ELISA, coated murine CD22, 0.01 nM Ab
Outline: as §1

[11] = target: T1, murine CD22 protein (ACROBiosystems, …); assay: ELISA, coated murine CD22, 100 nM Ab
Outline: as §1

B1: HA22-hIgG1 (antibody, V domains shown)
VH: EVQLVESGGGLVKPGGSLKLSCAASGFAFSIYDMSWVRQTPEKCLEWVAYISSGGGTTYYPDTVKGRFTISRDNAKNTLYLQMSSLKSEDTAMYYCARHSGYGTHWGVLFAYWGQGTLVTVSA
VL: DIQMTQTTSSLSASLGDRVTISCRASQDISNYLNWYQQKPDGTVKLLIYYTSILHSGVPSRFSGSGSGTDYSLTISNLEQEDFATYFCQQGNTLPWTFGCGTKLEIKR
B1 was tested, and the OD450 [1] was 0.06 OD450, the OD450 [2] was 0.05 OD450 and the OD450 [3] was 0.06 OD450. For the same binder, the EC50 [4] was 0.71 nM, the “Maximum mean fluorescence intensity” value [4] was 19700 MFI and the EC50 [5] was 0.29 nM. The “Maximum mean fluorescence intensity” value [5] was 25000 MFI, the OD450 [6] was 0.06 OD450 and the OD450 [7] was 0.07 OD450. For the same binder, the EC50 [8] was 0.81 nM, the “Maximum mean fluorescence intensity” value [8] was 32700 MFI and the EC50 [9] was 1.1 nM. The “Maximum mean fluorescence intensity” value [9] was 43400 MFI, the OD450 [10] was 0.06 OD450 and the OD450 [11] was 0.1 OD450.
